± gives the uncertainty stated by the source.
B1: Protein C-ets-1, residues 55 to 135; numbered along this chain, P14921 (parent)
chain: GFTKEQQRLGIPKDPRQWTETHVRDWVMWAVNEFSLKGVDFQKFCMNGAALCALGKDCFLELAPDFVGDILWEHLEILQKE
B2: Transcription factor SOX-11, residues 50 to 117; numbered along this chain, P35716 (parent)
chain: KRPMNAFMVWSKIERRKIMEQSPDMHNAEISKRLGKRWKMLKDSEKIPFIREAERLRLKHMADYPDYK

Variants of: B1
Experiment: abundance fitness (aPCA) (normalised: wild type 0, dead -1); higher = more abundant; growth selection in yeast, the domain comes from the species named
Conditions: Homo sapiens

Abundance fitness of substitutions, site by site:
L71: P -0.891 ± 0.1; G -0.932 ± 0.072; R -0.979 ± 0.08; C -0.834 ± 0.14; N -0.128 ± 0.38; M -0.176 ± 0.055; K -0.978 ± 0.27; T -0.883 ± 0.14
E61: M -0.286 ± 0.079; W -0.908 ± 0.12; V -0.52 ± 0.048; S -0.011 ± 0.038; Y -0.908 ± 0.26; R -0.033 ± 0.041; P -0.234 ± 0.036; N -0.022 ± 0.073; L -0.248 ± 0.045
E73: C -0.252 ± 0.074; L -0.246 ± 0.035; I -0.651 ± 0.15; K 0.004 ± 0.075; T -0.19 ± 0.07; R -0.088 ± 0.031; M -0.277 ± 0.068; F -0.251 ± 0.059; H -0.315 ± 0.12; G -0.08 ± 0.036; P -0.898 ± 0.11; W -0.142 ± 0.052; Y -0.319 ± 0.11; A -0.079 ± 0.054; V -0.546 ± 0.053; Q -0.032 ± 0.063; D 0.04 ± 0.09
H74: D -0.214 ± 0.074; F -0.4 ± 0.093; C -0.137 ± 0.054; M -0.271 ± 0.09; P -0.794 ± 0.068; Y -0.454 ± 0.12; R -0.222 ± 0.026; S -0.08 ± 0.04; E -0.027 ± 0.064; K -0.273 ± 0.13; G -0.346 ± 0.042; A -0.135 ± 0.066; N -0.043 ± 0.062; W -0.611 ± 0.071; T -0.265 ± 0.053; Q -0.02 ± 0.048; L -0.198 ± 0.039; V -0.419 ± 0.039
I77: T 0.01 ± 0.068; L 0.053 ± 0.041; R -0.025 ± 0.035; F -0.013 ± 0.067; Y -0.043 ± 0.073; H 0.076 ± 0.1; V 0.029 ± 0.037; A 0.008 ± 0.042; M -0.009 ± 0.063; Q -0.029 ± 0.073; G 0.027 ± 0.035; P -0.346 ± 0.057; N 0.17 ± 0.12; C -0.021 ± 0.053; D -0.033 ± 0.1; K 0.052 ± 0.094; E -0.031 ± 0.067; W -0.033 ± 0.047; S 0.065 ± 0.049
E81: D -0.003 ± 0.26
G68: L -0.549 ± 0.045; S -0.124 ± 0.036; D -0.792 ± 0.12; Y -0.654 ± 0.13; Q -0.727 ± 0.11; A -0.116 ± 0.032; T -0.204 ± 0.052; N -0.265 ± 0.09; V -0.261 ± 0.026; K -0.678 ± 0.099; E -0.994 ± 0.12; H -0.541 ± 0.15; W -0.655 ± 0.087; C -0.156 ± 0.094
F66: L -0.022 ± 0.043; H 0.095 ± 0.048; C -0.031 ± 0.054; K 0.053 ± 0.076; A 0.02 ± 0.045; N 0.073 ± 0.094; M -0.032 ± 0.048; E -0.002 ± 0.069; R 0.033 ± 0.046; P 0.048 ± 0.044; I 0.021 ± 0.063; T 0.037 ± 0.048; D 0.051 ± 0.058; S 0.036 ± 0.036
L75: H -0.914 ± 0.25; I -0.21 ± 0.14; D -0.91 ± 0.2; V -0.721 ± 0.059; T -1.02 ± 0.17; P -0.898 ± 0.14; K -0.466 ± 0.14; C -0.964 ± 0.13; R -0.863 ± 0.058; E -0.952 ± 0.14; S -0.796 ± 0.059; A -0.921 ± 0.12; M -0.169 ± 0.055; W -0.097 ± 0.046; Y -0.62 ± 0.14; N -0.697 ± 0.16; G -0.935 ± 0.073
P64: V -0.836 ± 0.085; E -0.239 ± 0.057; M -1.06 ± 0.2; Y -0.728 ± 0.2; Q -0.288 ± 0.065; I -0.891 ± 0.22; F -0.896 ± 0.22; N -0.296 ± 0.14; S -0.202 ± 0.045; G 0.032 ± 0.041; K -0.6 ± 0.074; H -0.34 ± 0.091; T -0.194 ± 0.059; L -0.861 ± 0.082; W -0.938 ± 0.12
K80: N 0.029 ± 0.19

Variants of: B2
Experiment: as above
Conditions: Homo sapiens

Abundance fitness: each site, then its substitutions
R2: K -0.041 ± 0.12; M 0.158 ± 0.096; V 0.118 ± 0.055; A -0.178 ± 0.079; D 0.146 ± 0.069; F 0.091 ± 0.075; Q 0.037 ± 0.14; I 0.113 ± 0.055; N 0.166 ± 0.059; C 0.041 ± 0.054; H 0.086 ± 0.077; E -0.165 ± 0.15; P -0.011 ± 0.085; Y 0.272 ± 0.061; W -0.97 ± 0.34; S 0.064 ± 0.047; L 0.037 ± 0.063; G 0.03 ± 0.049; T 0.282 ± 0.061
P3: A -0.544 ± 0.096; C -0.442 ± 0.088
K1: S -0.026 ± 0.067; C -0.056 ± 0.075; Y 0.032 ± 0.065; I -0.048 ± 0.062; D 0.21 ± 0.059; T 0.032 ± 0.082; F 0.113 ± 0.076; L -0.137 ± 0.11; G 0.103 ± 0.058; W 0.006 ± 0.2; N 0.077 ± 0.06; M -0.421 ± 0.2; E 0.258 ± 0.17

Reference: the Human Domainome abundance scans (Beltran et al. 2025)
